Variants at the floor of the assay were thinned out.
B1: TPR 5TU (parent)
chain: GGAUCUUCUCGAUCUAACAAAAAAGACAAAUCUGCCACAAAGCUUGAGAGCAUCUUCGGAUGCAGAGGCGGCAGCCUUCGGUGGCGCGAUAGCGCCAACGUUCUCAACUAUGACACGCAAAACGCGUGCUCCGUUGAAUGGAGUUUAUCAUG

Variants of: B1
Assay: polymerase ribozyme fitness, log enrichment relative to wild type (log ratio); higher = more active; in vitro selection for triplet polymerase activity
How it was run: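 Mutant libraries were PCR-built and transcribed for each subunit of a heterodimeric triplet polymerase ribozyme and selected for one round in triplicate at −7 °C, frozen, before gel excision of extended constructs and streptavidin-bead capture. Input and output libraries were Illumina-sequenced, keeping genotypes with ≥10 input reads and ≥1 read per output. Fitness is a logarithmic ratio of genotype to wild-type enrichment, in base 2, using inverse-variance-weighted replicate averages.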

Variant | polymerase ribozyme fitness (log ratio)
GGAUCUUCUCGAUCUAACAAAAAAGACAAAUCUGCCACAAAGCUUGAGAGCAUCUUCGGAUGCAGAGGCGGCAGCCUUCGGUGGCUCGGUAGCGCCAACGUUCUCAACUAUGACACGCAAAACGCGUGCUCCGUUGAAUGGAGUAUAUCAUG | -3.28
GGAUCUUCUCGAUCUAACAAAAAAGACAAAUCUGCCACAAAGCUUGAGAGCAUCUUCGGAUGCAGAGGCGGCAGCCUUCGGUGGCCCGAUAGCGCCAACGUUCUUAACUAUGACACGCAAAACGCGUGCUCCGUUGAAUGGAGUUUAUCAUG | -1.5
GGAUCUUCUCGAUCUAACAAAAAAGACAAAUCUGCCACAAAGCUUGAGAGCAUCUUCGGAUGCAGAGGCGGCAGCCUUCGGUGGCUCGAUAGCGCCAACGUUCUCAGCUAUGACACGCAAAACGCGUGCUCCGUUGAAUGGACUUUAUCAAG | ≤ -4.2
GGAUCUUCUCGAUCUAACAAAAAAGACAAAUCUGCCACAAAGCUUGAGAGCAUCUUCGGAUGCAGAGGCGGCAGCCUUCGGUGGCCCGAUAGCGCCAACGUUCUCAACGAUGACACGGAAAACGCGUGCUCCGUUGAAUGGAGUUUAUCAUG | -3.5
GGAUCUUCUCGAUCUAACAAAAAAGACAAAUCUGCCACAAAGCUUGAGAGCAUCUUCGGAUGCAGAGGCGGCAGCCUUCGGUGGCACGAUAGCGCCAACGUGCUCAACUAUGACACGCAAAACGCGUGCUCCGUUGAAUGGAGUUUAUCAUG | -4.05
GGAUCUUCUCGAUCUAACAAAAAAGACAAAUCUGCCACAAAGCUUGAGAGCAUCUUCGGAUGCAGAGGCGGCAGCCUUCGGUGGCUCGUUAGCGCCAACGUUCUCAACUAUGUCACGCAAAACGCGUGCUGCGUUGAAUGGAGUUUAUCAUG | ≤ -4.2
GGAUCUUCUCGAUCUAACAAAAAAGACAAAUCUGCCACAAAGCUUGAGAGCAUCUUCGGAUGCAGAGGCGGCAGCCUUCGGUGGCCCGAUAGCGCCAACGUUCACAACUAUGACACGCAAAACGCGUGCUCCGUUGAAUGGAGUUUAUCAUG | -2.46
GGAUCUUCUCGAUCUAACAAAAAAGACAAAUCUGCCACAAAGCUUGAGAGCAUCUUCGGAUGCAGAGGCGGCAGCCUUCGGUGGCCCGAUAGCGCUAACGUUCUCAACUAUGACACGCAAAACGCGUGCUCCGUUGAAUGGAGUUUAUCAUG | -2.67
GGAUCUUCUCGAUCUAACAAAAAAGACAAAUCUGCCACAAAGCUUGAGAGCAUCUUCGGAUGCAGAGGCGGCAGCCUUCGGUGGCUCGAUAGCGCCAACGUUCUCAACUAUGACACGCAGAACGCGUGAUCCGUUGAAUGGAGUGUAUCAUG | -4.13
GGAUCUUCUCGAUCUAACAAAAAAGACAAAUCUGCCACAAAGCUUGAGAGCAUCUUCGGAUGCAGAGGCGGCAGCCUUCGGUGGCCCGAUAGCGCCACCGUUCUCAACUAUGACACGCAAAACGCGUGCUCCGUUGAAUGGAGUUUAUCAUG | -1
GGAUCUUCUCGAUCUAACAAAAAAGACAAAUCUGCCACAAAGCUUGAGAGCAUCUUCGGAUGCAGAGGCGGCAGCCUUCGGUGGCCCGAUAGCGCCAACGUUCUCAACUAUGACAUGCAAAACGCGUGCUCCGUUGAAUGGAGUUUAUCAUG | -2.44
GGAUCUUCUCGAUCUAACAAAAAAGACAAAUCUGCCACAAAGCUUGAGAGCAUCUUCGGAUGCAGAGGCGGCAGCCUUCGGUGGCUCGAUAGGGCCAACGUUCUCAACUAUGACACGCAAAACGCGUGCUCCGUUGAAUGGAGUUUAUCAUG | -1.28
GGAUCUUCUCGAUCUAACAAAAAAGACAAAUCUGCCACAAAGCUUGAGAGCAUCUUCGGAUGCAGAGGCGGCAGCCUUCGGUGGCUCGAUAGGGCCAACGUUCUCGACUAUGACACGCAAAACGCGUGCUCUGUUGAAUGGAGUUUAACAUG | -3.05
GGAUCUUCUCGAUCUAACAAAAAAGACAAAUCUGCCACAAAGCUUGAGAGCAUCUUCGGAUGCAGAGGCGGCAGCCUUCGGUGGCCCGAUAGCGCCAACGAUCGCACCUAUCACACGCAAAACGCGUGCUCCGUUGAAUGGAGUUUAUCAUG | ≤ -4.2
GGAUCUUCUCGAUCUAACAAAAAAGACAAAUCUGCCACAAAGCUUGAGAGCAUCUUCGGAUGCAGAGGCGGCAGCCUUCGGUGGCUCGCUAGCGCCAACGUUCUCAACUAUGACACGCCAAACGCGUGCUCCGUUGAAUGGAGUUUAUCAUG | -3.83
GGAUCUUCUCGAUCUAACAAAAAAGACAAAUCUGCCACAAAGCUUGAGAGCAUCUUCGGAUGCAGAGGCGGCAGCCUUCGGUGGCUCGAUAGCGCCAACGUUCUCAACUAUGACACGCAAAACGCGUGCUCCGUUGAAUGGGGUUUAUCAUG | -2.35
GGAUCUUCUCGAUCUAACAAAAAAGACAAAUCUGCCACAAAGCUUGAGAGCAUCUUCGGAUGCAGAGGCGGCAGCCUUCGGUGGCUAGAUAGCGACAACGUUCACAACUAUGACACGCAAAACGCGUGCUCCGUUGAAUGGAGUUUAUCAUG | ≤ -4.2
GGAUCUUCUCGAUCUAACAAAAAAGACAAAUCUGCCACAAAGCUUGAGAGCAUCUUCGGAUGCAGAGGCGGCAGCCUUCGGUGGCUCGAUAGCGCCAACGUUCUCAACUAUGACACGCGAAACGCGUGCUCCGUUGAAUGGAGUUUAUCAUG | -1.54
GGAUCUUCUCGAUCUAACAAAAAAGACAAAUCUGCCACAAAGCUUGAGAGCAUCUUCGGAUGCAGAGGCGGCAGCCUUCGGUGGCCCGAUAGCGCCAACGUUCUCAACUAUGAUACGCAAAACGCGUGCUCCGUUGAAUGGAGUUUAUCAUG | -3.9
